Measured values reported in the supplement of paper PMC7125110.
± gives the standard error. For some assays here: Fewer inactive variants are shown than the library holds.

B1: glmS ribozyme (parent)
chain: AUAAAAGCGCCAGAACUACAGAAAUGUAGUUGACGAGGAGGAGGUUUAUCGAAUUUUCGGCGGAUGCCUCCAAA

Assays:
Conditions in all cases: with glucosamine-6-phosphate
glucosamine-6-phosphate [1] = variants of: B1; experiment: kcat; higher = faster cleavage; RNA array
Method in brief: (§1)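 Using a hybridised Cy3 probe at 37 °C, barcoded ribozyme variants transcribed in situ by E. coli RNA polymerase on sequenced MiSeq chips were monitored across tiles imaged over ~14 h. The flow contained glucosamine-6-phosphate from 40 μM to 10 mM in HEPES/KCl/Mg(OAc)2 buffer. Signals were normalised to baseline and to non-cleaving reference variants before per-tile medians were fit to one- or two-exponential decays to yield kobs. Weighted Michaelis–Menten fits across concentrations gave kcat and KM.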

glucosamine-6-phosphate [2] = variants of: B1; experiment: KM; higher = weaker cofactor use; RNA array
Method in brief: as §1

glucosamine-6-phosphate [3] = variants of: B1; experiment: self-cleavage kobs at 640 uM GlcN6P; higher = faster cleavage; RNA array
Method in brief: as §1

glucosamine-6-phosphate [4] = variants of: B1; experiment: self-cleavage kobs at 2500 uM GlcN6P; higher = faster cleavage; RNA array
Method in brief: as §1

glucosamine-6-phosphate [5] = variants of: B1; experiment: self-cleavage kobs at 10000 uM GlcN6P; higher = faster cleavage; RNA array
Method in brief: as §1

glucosamine-6-phosphate [6] = variants of: B1; experiment: self-cleavage kobs at 160 uM GlcN6P; higher = faster cleavage; RNA array
Method in brief: as §1

Row | Variant | kcat (glucosamine-6-phosphate [1]) | KM (glucosamine-6-phosphate [2]) | self-cleavage kobs at 640 uM GlcN6P (glucosamine-6-phosphate [3]) | self-cleavage kobs at 2500 uM GlcN6P (glucosamine-6-phosphate [4]) | self-cleavage kobs at 10000 uM GlcN6P (glucosamine-6-phosphate [5]) | self-cleavage kobs at 160 uM GlcN6P (glucosamine-6-phosphate [6])
1 | AUAAAAGCGCCAGAACUACAGAAAUGUAGUUGACGAGGAGGAGAUUUAUCGAAUUAUCGGCGGAUGCCUCCAAA [G44A U56A] | 0.00026 ± 6.2e-06 s⁻¹ | 2650 ± 150 µM | 4.93e-05 ± 1.6e-05 s⁻¹ | 0.00013 ± 2.6e-05 s⁻¹ | 0.000205 ± 2.9e-05 s⁻¹ | –
2 | AUAAAAGCGCCAGAACUACAGAAAUGUAGUUGACGAGGAGGAGAUUUAUCGAAUUUUCGGCGGAUACCUCCAAA [G44A G66A] | 0.000681 ± 0.00022 s⁻¹ | – | 0.000259 ± 4.6e-05 s⁻¹ | 0.000848 ± 0.00022 s⁻¹ | 0.000527 ± 0.0001 s⁻¹ | 4.37e-05 ± 1.7e-05 s⁻¹
3 | AUAAAAGCGCCAGAACUACAGAAAUGUAGUUGACGAGGAGGACGUUUAUCGAAUUUUCGGCGGAUGCUUCCAAA [G43C C68U] | 0.000722 ± 5.4e-05 s⁻¹ | 1370 ± 190 µM | 0.000235 ± 2.8e-05 s⁻¹ | 0.000572 ± 0.00012 s⁻¹ | 0.000615 ± 6.7e-05 s⁻¹ | 7.12e-05 ± 1.6e-05 s⁻¹
4 | AUAAAAGCGCCAGAACUACAGAAAUGUAGUUGACGAGGAGGAGAUUUAUCGAAUAUUCGGCGGAUGCCUCCAAA [G44A U55A] | 0.000528 ± 5e-05 s⁻¹ | 2150 ± 420 µM | 0.000113 ± 2.3e-05 s⁻¹ | 0.000286 ± 6.8e-05 s⁻¹ | 0.000437 ± 6.1e-05 s⁻¹ | 5.44e-05 ± 2.2e-05 s⁻¹
5 | AUAAAAGCGCCAGAACUACAGAAAUGUAGUUGACGAGGAGGAAGUUUAUCGAAUUUUCGGCGGAUGCAUCCAAA [G43A C68A] | 2.1e-05 ± 8.5e-06 s⁻¹ | – | – | – | – | –
6 | AUAAAAGCGCCAGAACUACAGAAAUGUAGUUGACGAGGAGGAGAUUUAUCGAACUUUCGGCGGAUGCCUCCAAA [G44A U54C] | 0.00159 ± 0.00015 s⁻¹ | 8260 ± 990 µM | 0.000114 ± 1.7e-05 s⁻¹ | 0.000372 ± 6.7e-05 s⁻¹ | 0.000869 ± 0.00017 s⁻¹ | –
7 | AUAAAAGCGCCAGAACUACAGAAAUGUAGUUGACGAGGAGGAGAUUUAUCGAAAUUUCGGCGGAUGCCUCCAAA [G44A U54A] | 0.000692 ± 0.00012 s⁻¹ | 2530 ± 870 µM | 0.000132 ± 3.9e-05 s⁻¹ | 0.00051 ± 0.0002 s⁻¹ | 0.000538 ± 0.00011 s⁻¹ | –
8 | AUAAAAGCGCCAGAACUACAGAAAUGUAGUUGACGAGGAGGACGUUUAUCGAAUUUUCGGCGGAUGGCUCCAAA [G43C C67G] | 0.000698 ± 0.00015 s⁻¹ | 2490 ± 1200 µM | 0.000186 ± 3.6e-05 s⁻¹ | 0.000454 ± 0.0001 s⁻¹ | 0.000541 ± 5.7e-05 s⁻¹ | –
